Assay results taken from US20220193132A1 (NATIONAL RESEARCH COUNCIL OF CANADA, published 2022).

Legend:
[1] = target: T1, recombinant human wild type EGFR protein (extracellular domain), native (human, UniProt P00533 25-645); experiment: ELISA on recombinant antigen
T1 construct: also called wt EGFR; EGFR WT
Description: (§1) Pre- and post-immune sera titers of animals were assessed by ELISA on recombinant EGFRvIII protein. Unless otherwise stated, all incubations were performed at room temperature. […] Microplates were washed three times in PBS and blocked for 30 min with PBS containing 1% bovine serum albumin (BSA, Sigma Cat #A7030). Blocking buffer was removed and 25 μl of serial dilutions of sera samples were added. […] After a 1-h incubation, microplates were washed 4 times and 25 μl of p-nitrophenyl phosphate (pNPP) substrate (Sigma-Aldrich Canada Co., Oakville, ON) at 1 mg/ml in carbonate buffer at pH 9.6 was added and further incubated for 30 min.
(§2) Antigens at 1-2 mg/ml were incubated at 95° C. for 5 min in PBS containing DTT at a final concentration of 40 mM. They were then incubated on ice for 5 min and diluted at their final coating concentration for ELISA purpose.
(§3) ELISA was performed as described above (serum titer determination) using 25 μl of mAb supernatant (Exp 1) or purified mAb at 1 μg/ml (Exp 2).

[2] = target: T2, recombinant human wild type EGFR protein (extracellular domain), denatured (human, UniProt P00533 25-645); experiment: ELISA on recombinant antigen
T2 construct: Same protein as m23 after 95 C for 5 min in PBS with 40 mM DTT (denatured, reduced); also called wt EGFR Denatured
Description: as §1, §2, §3

[3] = target: T1, recombinant human wild type EGFR …; experiment: ELISA Exp 1, mAb supernatant
[4] = target: T3, recombinant human EGFRvIII protein (extracellular domain), native (human, UniProt P00533 298-623); experiment: ELISA Exp 1, mAb supernatant
T3 construct: also called hEGFRvIII

[5] = target: T2, recombinant human wild type EGFR …; experiment: ELISA Exp 1, mAb supernatant
[6] = target: T4, recombinant human EGFRvIII protein (extracellular domain), denatured (human, UniProt P00533 298-623); experiment: ELISA Exp 1, mAb supernatant
T4 construct: Same protein as m21 after 95 C for 5 min in PBS with 40 mM DTT (denatured, reduced); also called EGFRvIII Denatured

[7] = target: T5, wild type human EGFR, full length, overexpressed on U87MG cells (human, UniProt P00533 25-1210); experiment: flow cytometry dose-response, U87MG-EGFRwt cells
T5 construct: also called U87MG-EGFR wt; U87 WT
Description: Prior to analysis, cells were plated such that they were not more than 80% confluent on the day of analysis. Unless otherwise stated, all media are kept are 4° C. and all incubations are performed on wet ice. Cells were washed in PBS, harvested by the addition of cell dissociation buffer (Sigma), centrifuged and resuspended in complete medium at a cell density of 2×10⁶ cells/mL. Fifty μL/well of cells were distributed in a polypropylene v-bottom 96 well plate and serial 1/3 dilutions of purified mAbs starting at 100 nM were added and incubated for 2 hours. […] Cells were washed and re-suspended in medium containing Propidium iodide to exclude dead cells from analysis. Samples were filtered through a 60 μm nylon mesh filter plate (Millipore, Ireland) to remove cell aggregates. Flow cytometry analyses were performed on 2,000 viable single-cells events gated on forward scattering, side scattering parameters and propidium iodide dye exclusion using a BD-LSRFortessa flow cytometer (Becton-Dickinson Biosciences, CA, USA) and a standard filter set using BD FACSDiva™ acquisition software, according to manufacturer's instructions.
Specific detection of antibody binding was calculated as the mean fluorescent intensity of binding to each primary antibody after background level subtraction of the mean fluorescent intensity of binding of mouse IgG control. The data were analyzed with GraphPad Prism v 6.0 software using one-site specific binding with Hill slope non-linear regression curve fit model to determine Bmax (maximum specific binding) and Kdₐₚₚ (concentration needed to achieve a half-maximum binding at equilibrium) for each mAb tested.

[8] = target: T6, EGFRvIII, full length, overexpressed on glioblastoma cells (human, UniProt P00533 298-623); experiment: flow cytometry dose-response on U87MG-EGFRvIII cells, apparent Kd
T6 construct: Cells overexpress full length EGFRvIII (deletion of exons 2-7 of EGFR); Cell line (U87MG or DKMG) is named under assay; also called U87MG-EGFRvIII; U87vIII

[9] = target: T1, recombinant human wild type EGFR …; experiment: ELISA Exp 2, purified mAb 1 ug/ml;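 note: ELISA of purified mAb binding to plate-coated antigen, native or heat/DTT-denatured, with pNPP substrate developed for 30 min and incubations at room temperature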
Description: as §1, §2, §3

[10] = target: T3, recombinant human EGFRvIII protein …; experiment: ELISA Exp 2, purified mAb 1 ug/ml;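 note: ELISA of purified mAb binding to plate-coated antigen, native or heat/DTT-denatured, with pNPP substrate developed for 30 min and incubations at room temperature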
Description: as §1, §2, §3

[11] = target: T2, recombinant human wild type EGFR …; experiment: ELISA Exp 2, purified mAb 1 ug/ml;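 note: ELISA of purified mAb binding to plate-coated antigen, native or heat/DTT-denatured, with pNPP substrate developed for 30 min and incubations at room temperature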
Description: as §1, §2, §3

[12] = target: T4, recombinant human EGFRvIII protein …; experiment: ELISA Exp 2, purified mAb 1 ug/ml;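 note: ELISA of purified mAb binding to plate-coated antigen, native or heat/DTT-denatured, with pNPP substrate developed for 30 min and incubations at room temperature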
Description: as §1, §2, §3

[13] = target: T7, EGFRvIII fragment amino acid residues 15 to 37, displayed on yeast (human); experiment: yeast surface display, flow cytometry
T7 construct: also called aa 15-37; fragment 15-37
T7 peptide: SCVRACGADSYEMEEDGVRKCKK
Excerpt: (§4) Assessment of the binding of anti-EGFRvIII mAbs to the fusion proteins expressed on yeast cell surface was done by flow cytometry analysis. Briefly, yeast cells were labeled with both the anti-hEGFRvIII mAb and chicken anti-Myc antibody, the latter being used to monitor the level of expression of the fusion protein. Following a wash step, binding of the primary antibodies is probed by a two-color indirect fluorescence labeling using secondary antibodies specific for mouse and chicken antibodies, respectively.

[14] = target: T8, EGFRvIII amino acid residues 15 to 37 with Cys20 to Ala mutation (human); experiment: yeast display flow cytometry, alanine scan
T8 construct: mutation is already in the entry
T8 peptide: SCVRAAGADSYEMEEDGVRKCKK
Excerpt: as §4
(§5) To further characterize mAb epitopes within the EGFRvIII 15-37 region, an alanine scan of this region was performed, and modified fragments were expressed at the surface of the yeast. […] The resulting peptides were expressed at the surface of the yeast and each anti-EGFRvIII mAbs was tested on the corresponding yeast mutant strain by flow cytometry analysis. Thus, this assay determined the contribution of each amino acid(s) in the monoclonal antibody binding.

[15] = target: T9, EGFRvIII amino acid residues 15 to 37 with Gly21 to Ala mutation (human); experiment: yeast display flow cytometry, alanine scan
T9 construct: mutation is already in the entry
T9 peptide: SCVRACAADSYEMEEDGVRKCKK
Excerpt: as §4, §5

[16] = target: T10, EGFRvIII amino acid residues 15 to 37 with Cys35 to Ala mutation (human); experiment: yeast display flow cytometry, alanine scan
T10 construct: mutation is already in the entry
T10 peptide: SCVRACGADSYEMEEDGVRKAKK
Excerpt: as §4, §5

[17] = target: T11, EGFRvIII amino acid residues 15 to 37 with Arg18 to Ala mutation (human); experiment: yeast display flow cytometry, alanine scan
T11 construct: mutation is already in the entry
T11 peptide: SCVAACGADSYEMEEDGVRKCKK
Excerpt: as §4, §5

[18] = target: T6, EGFRvIII, full length, overexpressed on …; experiment: cell-based or functional assay
[19] = target: T12, EGFRvIII amino acid residues 15 to 37 with Ser24 to Ala mutation (human); experiment: yeast display flow cytometry, Myc-normalized;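 note: Anti-EGFRvIII monoclonal antibodies tested by flow cytometry on yeast displaying alanine-substituted fragments, two-color indirect fluorescence with anti-Myc signal tracking fusion protein expression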
T12 construct: mutation is already in the entry
T12 peptide: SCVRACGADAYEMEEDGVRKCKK
Excerpt: as §4, §5

[20] = target: T13, EGFRvIII amino acid residues 15 to 37 with Gly31 to Ala mutation (human); experiment: yeast display flow cytometry, Myc-normalized;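 note: Anti-EGFRvIII monoclonal antibodies tested by flow cytometry on yeast displaying alanine-substituted fragments, two-color indirect fluorescence with anti-Myc signal tracking fusion protein expression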
T13 construct: mutation is already in the entry
T13 peptide: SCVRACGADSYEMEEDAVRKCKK
Excerpt: as §4, §5

[21] = target: T14, EGFRvIII amino acid residues 15 to 37 with Lys37 to Ala mutation (human); experiment: yeast display flow cytometry, Myc-normalized;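 note: Anti-EGFRvIII monoclonal antibodies tested by flow cytometry on yeast displaying alanine-substituted fragments, two-color indirect fluorescence with anti-Myc signal tracking fusion protein expression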
T14 construct: mutation is already in the entry
T14 peptide: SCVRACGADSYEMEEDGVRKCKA
Excerpt: as §4, §5

[22] = target: T15, EGFRvIII amino acid residues 15 to 37 with Val17 to Ala mutation (human); experiment: yeast display flow cytometry, Myc-normalized;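 note: Anti-EGFRvIII monoclonal antibodies tested by flow cytometry on yeast displaying alanine-substituted fragments, two-color indirect fluorescence with anti-Myc signal tracking fusion protein expression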
T15 construct: mutation is already in the entry
T15 peptide: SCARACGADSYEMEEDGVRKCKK
Excerpt: as §4, §5

[23] = target: T16, EGFRvIII amino acid residues 15 to 37 with Val32 to Ala mutation (human); experiment: yeast display flow cytometry, Myc-normalized
T16 construct: mutation is already in the entry
T16 peptide: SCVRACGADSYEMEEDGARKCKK
Excerpt: as §4, §5

[24] = target: T17, EGFRvIII amino acid residues 15 to 37 with Lys36 to Ala mutation (human); experiment: yeast display flow cytometry, Myc-normalized
T17 construct: mutation is already in the entry
T17 peptide: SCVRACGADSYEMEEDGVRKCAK
Excerpt: as §4, §5

[25] = target: T18, EGFRvIII amino acid residues 15 to 37 with Glu29 to Ala mutation (human); experiment: yeast display flow cytometry, Myc-normalized
T18 construct: mutation is already in the entry
T18 peptide: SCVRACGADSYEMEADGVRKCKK
Excerpt: as §4, §5

[26] = target: T19, EGFRvIII amino acid residues 15 to 37 with Tyr25 to Ala mutation (human); experiment: yeast display flow cytometry, Myc-normalized
T19 construct: mutation is already in the entry
T19 peptide: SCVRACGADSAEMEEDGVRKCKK
Excerpt: as §4, §5

[27] = target: T20, EGFRvIII amino acid residues 15 to 37 with Glu28 to Ala mutation (human); experiment: yeast display flow cytometry, Myc-normalized
T20 construct: mutation is already in the entry
T20 peptide: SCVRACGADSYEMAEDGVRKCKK
Excerpt: as §4, §5

[28] = target: T21, EGFRvIII amino acid residues 15 to 37 with Met27 to Ala mutation (human); experiment: yeast display flow cytometry, Myc-normalized
T21 construct: mutation is already in the entry
Excerpt: as §4, §5

[29] = target: T22, EGFRvIII amino acid residues 15 to 37 with Asp23 to Ala mutation (human); experiment: yeast display flow cytometry, Myc-normalized
T22 construct: mutation is already in the entry
T22 peptide: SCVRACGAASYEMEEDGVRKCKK
Excerpt: as §4, §5

[30] = target: T23, EGFRvIII amino acid residues 15 to 37 with Glu26 to Ala mutation (human); experiment: yeast display flow cytometry, Myc-normalized
T23 construct: mutation is already in the entry
T23 peptide: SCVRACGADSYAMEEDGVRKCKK
Excerpt: as §4, §5

[31] = target: T24, EGFRvIII amino acid residues 15 to 37 with Asp30 to Ala mutation (human); experiment: yeast display flow cytometry, Myc-normalized
T24 construct: mutation is already in the entry
T24 peptide: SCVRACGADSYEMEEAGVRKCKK
Excerpt: as §4, §5

[32] = target: T25, EGFRvIII amino acid residues 15 to 37 with Cys16 to Ala mutation (human); experiment: yeast display flow cytometry, Myc-normalized
T25 construct: mutation is already in the entry
T25 peptide: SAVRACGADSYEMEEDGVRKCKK
Excerpt: as §4, §5

[33] = target: T26, EGFRvIII amino acid residues 15 to 37 with Ser15 to Ala mutation (human); experiment: yeast display flow cytometry, Myc-normalized
T26 construct: mutation is already in the entry
T26 peptide: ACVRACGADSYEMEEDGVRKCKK
Excerpt: as §4, §5

[34] = target: T27, EGFRvIII amino acid residues 15 to 37 with Arg33 to Ala mutation (human); experiment: yeast display flow cytometry, Myc-normalized
T27 construct: mutation is already in the entry
T27 peptide: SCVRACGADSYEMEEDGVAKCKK
Excerpt: as §4, §5

[35] = target: T28, EGFRvIII amino acid residues 15 to 37 with Lys34 to Ala mutation (human); experiment: yeast display flow cytometry, Myc-normalized
T28 construct: mutation is already in the entry
T28 peptide: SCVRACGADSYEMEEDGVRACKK
Excerpt: as §4, §5

[36] = target: T6, EGFRvIII, full length, overexpressed on …; experiment: cell-based or functional assay; remark: listed apart in the source

T21 sequence (peptide, as listed by the source, change not shown): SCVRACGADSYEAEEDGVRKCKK

| Binder | ELISA absorbance 405 nm [3] | ELISA absorbance 405 nm [4] | ELISA absorbance 405 nm [5] | ELISA absorbance 405 nm [6] | Kd [8] | ELISA absorbance 405 nm [9] | ELISA absorbance 405 nm [10] | ELISA absorbance 405 nm [11] | ELISA absorbance 405 nm [12] | binding result [13] | binding result [14] | binding result [15] | binding result [16] | binding result [17] | % survival (DM1 secondary-conjugate ADC surrogate assay, vs mouse IgG) [18] | % of binding vs wild-type fragment 15-37 [19] | % of binding vs wild-type fragment 15-37 [20] | % of binding vs wild-type fragment 15-37 [21] | % of binding vs wild-type fragment 15-37 [22] | % of binding vs wild-type fragment 15-37 [23] | also measured |
| --- | --- | --- | --- | --- | --- | --- | --- | --- | --- | --- | --- | --- | --- | --- | --- | --- | --- | --- | --- | --- | --- |
| 13.1.2 mIgG1 (antibody, V domains shown) VH: QVQLVESGGGVVQPGRSLRLSCAASGFTFSSYGMHWVRQAPGKGLEWVAVIWYDGSNKYYVDSVKGRFTISRDNSKNTLYLQMNSLRAEDTAVYYCARDGWQQLAPFDYWGQGTLVTVSS VL: not shown | 0.011 A405 | 1.1 A405 | 0.003 A405 | 1.91 A405 | 4.3 nM | 0.003 A405 | 1.67 A405 | 0.005 A405 | 1.71 A405 |  |  |  |  |  |  |  |  |  |  |  | binding result [1]: no binding; binding result [2]: no binding; binding result [7]: no binding (tested: 100 nM highest concentration) |
| F263-4B3 (antibody, V domains shown, Mouse hybridoma mAb) VH: EVQLQQSGPELVKPGSSVKISCKASGYTFTDYNMDWVKQSHGKSLEWIGTINPNNGGTSYNQKFKGKATLTVDKSSNTAYMELRSLTSEDSAVYYCARGYDYDLWFAYWGQGTLVTVSA VL: EIVLTQSPALMAASPGEKVTITCSVSSSISSSNLHWYQQKSETSPKPWIYGTSNLASGVPVRFSGSGSGTSYSLTISSMEAEDAATYYCQQWSSYPLTFGAGTKLELE | 1.09 A405 | 1.5 A405 | 0.041 A405 | 1.74 A405 | 21.2 nM | 0.066 A405 | 1.19 A405 | 0.003 A405 | 0.603 A405 | binds | no binding (tested: 0-15% of wild-type binding) | no binding (tested: 0-15% of wild-type binding) | no binding (tested: 0-15% of wild-type binding) | no binding (tested: 0-15% of wild-type binding) | 83% | 194% | 49.9% | 170% | 146% | 92.4% | % of binding vs wild-type fragment 15-37 [24]: 99.2%; % of binding vs wild-type fragment 15-37 [25]: 71.6%; % of binding vs wild-type fragment 15-37 [26]: 98.8%; % of binding vs wild-type fragment 15-37 [27]: 86.7%; % of binding vs wild-type fragment 15-37 [28]: 101%; % of binding vs wild-type fragment 15-37 [29]: 94.1%; % of binding vs wild-type fragment 15-37 [30]: 102%; % of binding vs wild-type fragment 15-37 [31]: 94.3%; % of binding vs wild-type fragment 15-37 [32]: 169%; % of binding vs wild-type fragment 15-37 [33]: 94.7%; % of binding vs wild-type fragment 15-37 [34]: 68.4%; % of binding vs wild-type fragment 15-37 [35]: 136%; % internalization (pHrodo surrogate assay, vs 225 mAb) [36]: 61% |
| F263-5D8 (antibody, V domains shown, Mouse hybridoma mAb) VH: EVQLQQSGPDLVKPGSSVKISCKASGYTFTDYNIDWVKQSHGKSLEWIGTINPNYGGTSYNQKFKGKATLTVDKSSSTAYMELRSLTSEDSAVYYCARGYDYDLWFAYWGQGTLVTVSA VL: EIVLTQSPVFMAASPGEKVTITCSVSSSISSSNLHWYQQKSETSPKPWIYGTSNLASGVPVRFSGSGSGTSYSLTISSMEAEDAATYYCQQWSSYPLTFGAGTKLELK | 1.38 A405 | 1.43 A405 | 0.049 A405 | 1.86 A405 | 19.7 nM | 0.159 A405 | 1.49 A405 | 0 A405 | 0.848 A405 | binds | no binding (tested: 0-15% of wild-type binding) | no binding (tested: 0-15% of wild-type binding) | no binding (tested: 0-15% of wild-type binding) | no binding (tested: 0-15% of wild-type binding) | 69% | 246% | 40.4% | 194% | 144% | 95.2% | % of binding vs wild-type fragment 15-37 [24]: 97.9%; % of binding vs wild-type fragment 15-37 [25]: 77.3%; % of binding vs wild-type fragment 15-37 [26]: 108%; % of binding vs wild-type fragment 15-37 [27]: 81.6%; % of binding vs wild-type fragment 15-37 [28]: 96.5%; % of binding vs wild-type fragment 15-37 [29]: 106%; % of binding vs wild-type fragment 15-37 [30]: 37.9%; % of binding vs wild-type fragment 15-37 [31]: 80.4%; % of binding vs wild-type fragment 15-37 [32]: 154%; % of binding vs wild-type fragment 15-37 [33]: 93.1%; % of binding vs wild-type fragment 15-37 [34]: 71.8%; % of binding vs wild-type fragment 15-37 [35]: 151%; % internalization (pHrodo surrogate assay, vs 225 mAb) [36]: 64% |
